The record followed here is patent publication US20190202925A1 (OPI VI IP HOLDCO, published 2019).

Numbering of substitutions follows the chain as printed. Read-outs that look alike come from different tables or passages of the source.

Broadly, the IC50 is the concentration that gives 50% inhibition. High values mean lower potency, low ones higher potency. As a reminder, the Kd is the constant that tells how readily two partners part at equilibrium.

The target in assay [1] is T1, soluble cynomolgus TNFR2 (cynomolgus, UniProt A0A2K5VET2 132-366).
T1 sequence: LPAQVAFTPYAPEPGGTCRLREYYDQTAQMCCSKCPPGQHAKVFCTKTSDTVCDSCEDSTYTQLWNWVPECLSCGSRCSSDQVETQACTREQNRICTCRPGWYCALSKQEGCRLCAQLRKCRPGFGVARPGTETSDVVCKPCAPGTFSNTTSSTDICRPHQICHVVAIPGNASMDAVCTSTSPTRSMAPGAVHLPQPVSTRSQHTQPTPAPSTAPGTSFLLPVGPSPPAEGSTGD
Put plainly: competition ELISA: plate-bound soluble cynomolgus TNFR2, competitor biotinylated TNFα; IC50 relative to unlabelled TNFα = 1.00. As for the experimental part:
(§1) Soluble human TNFR2 (Sino Biological, 10417-H08H) or cynomolgus TNFR2 (Sino Biological, 90102-C08H) was coated on Nunc-Immuno™ plates at 0.1 μg/ml, 0.5 ug/ml, 1 μg/ml, and 5 μg/ml. […] Plates were developed using TMB and stopped with 3 M HCl.
(§2) IC₅₀ values are reported in nM.
For orientation: ELISA stands for enzyme-linked immunosorbent assay.

Assay [2] addresses T1, soluble cynomolgus TNFR2. Put plainly: competition ELISA: plate-bound soluble cynomolgus TNFR2, competitor biotinylated TNFα, streptavidin-HRP, A450. As for the experimental part:
as §1

The target in assay [3] is T2, soluble human TNFR2 (human, UniProt P20333 23-257).
T2 construct: also called soluble TNFR2
T2 sequence (looked up): T1 sequence with G16S, P36S, Q117P, H164N, A210E, G216S, V223M
Put plainly: competition ELISA: plate-bound soluble human TNFR2, competitor biotinylated TNFα, streptavidin-HRP, A450. As for the experimental part: as §1

Assay [4] addresses T3, cynomolgus TNFR2 on cells (cynomolgus).
T3 construct: whole, on cells; also called cynomolgus TNFR2 on CD4+ and CD8+ T cells
Put plainly: flow cytometry on cynomolgus PBMC, antibody at 10 ug/mL, anti-human Fc-PE secondary. As to the method:
Cynomolgus peripheral blood mononuclear cells (PBMCs) from two independent donors were isolated by diluting whole blood (SNBL USA) 1:1 in PBS (Lonza), layering over Ficoll-Paque Plus (GE Healthcare), and centrifuging for 35 minutes at 400×g. The PBMC fraction was removed, washed 3 times in 2% FBS PBS and counted. 0.3×10⁶ PBMC were resuspended in Fixable Viability Stain 575V (BD) diluted 1:1000 in PBS and incubated for 10 minutes. PBMC were then washed twice in PBS to remove residual viability stain, resuspended in Horizon Brilliant Stain Buffer (BD) with 10 uL per test of human Fc receptor binding inhibitor (eBioscience), and incubated on ice for 20 minutes to block Fc receptors. […] PBMC were incubated 20 minutes on ice and then washed three times with 2% FBS PBS. To visualize TNFR2 chimeric antibody binding, PBMC were resuspended in goat anti-human Fc-PE F(ab′)₂ secondary reagent (Jackson ImmunoResearch) diluted 1:200 in 2% FBS PBS and incubated on ice for 20 minutes. Cells were then washed three times in 2% FBS PBS and resuspended in 200 uL 2% FBS PBS for flow cytometry analysis using a BD FACS Celesta instrument and FACS Diva software. T cells were analyzed for chimeric TNFR2 binding by gating on viable cells defined as lymphocytes using forward and side scatter and as T cells by anti-CD3 staining. CD4⁺ and CD8⁺ subsets were identified using commercial specific antibody conjugates.
(A flow cytometer gives signals particle by particle.)

Assay [5] addresses T1, soluble cynomolgus TNFR2. In words: competition ELISA, plate-bound soluble cynomolgus TNFR2, biotinylated TNFα as competitor. As to the method: as §1, §2
Assay [6] has as its target T2, soluble human TNFR2. Put plainly: competition ELISA, plate-bound soluble human TNFR2, biotinylated TNFα as competitor. As for the experimental part:
as §1, §2

Assay [7] concerns the target T2, soluble human TNFR2. In words: competition ELISA: plate-bound soluble human TNFR2, competitor biotinylated TNFα; IC50 relative to unlabelled TNFα = 1.00. As to the method: as §1, §2
Assay [8] has as its target T4, human TNFR2 on cells (human, UniProt P20333 23-461).
T4 construct: whole, on cells; also called TNFR2 on Jurkat clone H6; human TNFR2 on CD4+ and CD8+ T cells
T4 sequence (looked up): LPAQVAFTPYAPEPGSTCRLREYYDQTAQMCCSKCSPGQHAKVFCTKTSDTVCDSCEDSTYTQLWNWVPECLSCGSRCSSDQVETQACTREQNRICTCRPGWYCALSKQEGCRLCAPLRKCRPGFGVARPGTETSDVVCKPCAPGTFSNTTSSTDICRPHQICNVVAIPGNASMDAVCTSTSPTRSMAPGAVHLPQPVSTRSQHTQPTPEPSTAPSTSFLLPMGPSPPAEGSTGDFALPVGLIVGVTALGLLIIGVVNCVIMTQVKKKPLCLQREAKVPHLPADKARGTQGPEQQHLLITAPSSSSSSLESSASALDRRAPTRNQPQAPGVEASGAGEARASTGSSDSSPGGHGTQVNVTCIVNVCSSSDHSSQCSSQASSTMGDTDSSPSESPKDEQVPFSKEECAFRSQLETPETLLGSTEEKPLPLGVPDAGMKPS
Put plainly: flow cytometry on human PBMC, antibody at 10 ug/mL, anti-human Fc-PE secondary. As for the experimental part: The following day 0.3×10⁶ PBMC were counted and washed with PBS (Lonza). PBMCs were resuspended in Fixable Viability Stain 575V (BD) diluted 1:1,000 in PBS and incubated for 10 minutes. PBMCs were then washed twice in PBS to remove residual viability stain. PBMCs were then resuspended in Horizon Brilliant Stain Buffer (BD) with 10 uL per test of human Fc receptor binding inhibitor (eBioscience) and incubated on ice for 20 minutes to block Fc receptors. […] PBMCs were incubated 20 minutes on ice and then washed three times with 2% FBS PBS. To visualize TNFR chimeric antibody binding, PBMCs were resuspended in goat anti-human Fc-PE F(ab′)₂ secondary reagent (Jackson ImmunoResearch) diluted 1:200 in 2% FBS PBS and incubated on ice for 20 minutes. Cells were then washed three times in 2% FBS PBS and resuspended in 200 uL 2% FBS PBS for flow cytometry analysis using a BD FACS Celesta instrument and FACS Diva software. T cells were analyzed for chimeric TNFR2 binding by gating on viable cells defined as lymphocytes using forward and side scatter and as T cells by anti-CD3 staining. CD4⁺ and CD8⁺ subsets were identified by commercially available specific antibody conjugates.

Assay [9] has as its target T5, monomeric cynomolgus TNFR2 extracellular domain (cynomolgus monkey, UniProt A0A2K5VET2 132-366).
T5 construct: extracellular domain; Analyte in the Octet experiments; also called cynomolgus TNFR2 ECD; Cyno TNFR2
T5 sequence: T1 sequence
Put plainly: BLI (Octet Red 96), antibody captured on Fc biosensor, monomeric TNFR2 ECD in solution, 1:1 model. As to the method: (§3) Analysis of binding to the human and cynomolgus TNFR2 ECD was performed using an Octet Red 96 Instrument™ (ForteBio). […] The experiments were performed using five steps: (1) baseline acquisition (60 s); (2) antibody loading on to anti-human or anti-mouse Fc biosensors (120 s); (3) second baseline acquisition (60 s); (4) association of interacting monomeric human or cynomolgus TNFR2 ECD protein for kₒₙ measurement (120 s); and (5) dissociation of interacting monomeric human or cynomolgus TNFR2 ECD for koff measurement (240-3600 s).
(§4) The interacting monomeric human or cynomolgus ECD was used at 5-6 concentrations of a 3-fold concentration series. The data were analyzed using Octet Data Analysis Software 9.0™ (ForteBio) and fit to the 1:1 binding model. The equilibrium dissociation constants (Kd) were calculated by the ratio of […].

For assay [10], the target named is T6, monomeric human TNFR2 extracellular domain (human, UniProt P20333 23-257).
T6 construct: extracellular domain; Analyte in the Octet experiments; also called human TNFR2 ECD
T6 sequence (looked up): T1 sequence with G16S, P36S, Q117P, H164N, A210E, G216S, V223M
Described as above. As for the experimental part:
as §3, §4

The target in assay [11] is T2, soluble human TNFR2. In words: competition ELISA: plate-bound soluble TNFR2, antibody titrated against constant biotinylated TNFα, streptavidin-HRP, A450.
Excerpt: (§5) Soluble human TNFR2 was coated on Nunc-Immuno™ plates. […] IC₅₀ values are reported in nM.
as §2

In assay [12] the target is T4, human TNFR2 on cells. In words: cell-based or functional assay.
Assay [13] addresses T2, soluble human TNFR2. In words: competition ELISA (FIG. 2), plate-bound soluble human TNFR2, constant biotinylated TNFα as competitor.
Excerpt: as §5

The target of assay [14] is T6, monomeric human TNFR2 extracellular …. In words: BLI (Octet Red 96), Human TNFR2 Kd (1-1). Background: Biolayer interferometry detects binding as a change in optical thickness at a sensor tip.
Assay [15] has as its target T2, soluble human TNFR2. Put plainly: competition ELISA: plate-bound soluble human TNFR2, competitor biotinylated TNFα, streptavidin-HRP, A450. As for the experimental part: as §1
The source holds these as a separate data set.

Assay [16] addresses T2, soluble human TNFR2. In words: competition ELISA: plate-bound soluble human TNFR2, competitor biotinylated TNFα; IC50 relative to unlabelled TNFα = 1.00. As to the method: as §1
This is another data set of the same source.

B1: chimeric SBT-004b (antibody, human IgG1, V domains shown)
VH: EVQLQQSGPEVGRPGSSVKISCKASGYTFTDYIMHWVKQSPGQGLEWIGWVDPEYGSTDYAEKFKKKATLTADTSSNTAYIQLSSLTSEDTATYFCARDDGSYSPFDYWGQGVMVTVSS
VL: NIVMTQSPKSMSMSVGERVTLTCKASENVVTYVSWYQQKPEQSPKLLIYGASNRYTGVPDRFTGSGSATDFTLTISSVQAEDLADYHCGQGYSYPYTFGGGTKLEIK
notes: Same heavy chain as chSBT-004 (human IgG1 Fc domain); also called chSBT-004b
B1: the “Relative IC50” value in the assay with soluble cynomolgus TNFR2 [1] worked out at 1.57 nM; in the assay with soluble human TNFR2 [7], 2.33 nM. The IC50 in the assay with soluble cynomolgus TNFR2 [2] is 15.1 nM; with soluble human TNFR2 [3], 12.9 nM. For the same molecule, the figures for the “% CD4^+ ab^+ Donor 1” value (in [4]; with human TNFR2 on cells [8]) were 8% and 29.3%, respectively. The “% CD4^+ ab^+ Donor 2” value in [4] turned out to be 5.5%; with human TNFR2 on cells [8] it was 18.4%. Besides, the “% CD8^+ ab^+ Donor 1” value in assay [4] was 9.2%; with human TNFR2 on cells [8], 9.1%. The results for the “% CD8^+ ab^+ Donor 2” value (in assay [4]; with human TNFR2 on cells [8]) were 11% and 11.4%, respectively. For the same molecule, the “Average Relative IC50” value with soluble cynomolgus TNFR2 [5] worked out at 1.56; in the assay with soluble human TNFR2 [6], 2.93 nM. The results for the Kd in [9] and in [10] were 7.9 nM and 2.8 nM, respectively.

B2: SBT-001 (antibody, V domains shown)
VH: EVQLQQSGAELVKPGASVKISCKASGYTFTDYNMDWVKQSHGKSLEWIGDINPNYESTSYNQKFKGKATLTVDKSSSTAYMEVRSLTSEDTAVFYCARDKGWYFDVWGAGTTVTVSS
VL: ENVLTQSPAIMSASLGEKVTMSCRASSSVKNMYWYQQKSDASPKLWIYYTSNLAPGVPARFSGSGSGNSYSLTISSMEGEDAATYYCQQFTSSPYTFGGGTKLELK
notes: Parental mouse antibody; also called mouse SBT-001
Take B2: the figures for the IC50 with soluble human TNFR2 [11] and with soluble human TNFR2 [13] were 8.27 nM and 9.04 nM, respectively. Besides, the “IC50 (µg/mL) (with pre-incubation); rescue of Jurkat H6 cells from 2 ng/mL TNFα, luminescence” value in the assay with human TNFR2 on cells [12] stood at 3.03 µg/mL. Also, the “IC50 (µg/mL) (without pre-incubation); rescue of Jurkat H6 cells from 2 ng/mL TNFα, luminescence” value with human TNFR2 on cells [12] turned out to be 2.53 µg/mL. The figures for the Kd in [9] and in [10] were 53.1 nM and 2.7 nM, respectively.

B3: SBT-003 (antibody, V domains shown)
VH: QIQLVQSGPELKKPGETVKISCKASGYTFTDYSMHWVKQAPGKGLKWMGWINTETGEPTYADDFKGRFAFSSETSTSTAYLQINNLKNDDTTTYFCATYYGSSYVPDYWGQGTSLTVSS
VL: DIVMTQSHKFMSTSVGDRVSITCKASQNVGTAVAWYQHKPGQSPKLLIYWTSSRHTGVPDRFTGSGSGTEFTLTISNVQSEDLADYFCHQYSDYPYTFGGGTKLEIK
notes: Parental mouse antibody; also called mouse SBT-003
Consider B3, for which the half-maximal inhibitory concentration (IC50) was 8.5 nM in the assay with soluble human TNFR2 [11] and 10.5 nM with soluble human TNFR2 [13]. In addition, the Kd in assay [14] and in assay [10] was 1.2 nM each time.

B4: chimeric SBT-003 (antibody, V domains shown)
VH: B3 VH
VL: B3 VL
notes: also called chSBT-003
For B4, in the assay with soluble human TNFR2 [15], the IC50 stood at 14.4 nM. In assay [4], the “% CD4^+ ab^+ Donor 1” value is 0.7%, the “% CD4^+ ab^+ Donor 2” value stood at 1.2%, the “% CD8^+ ab^+ Donor 1” value came out at 0.6% and the “% CD8^+ ab^+ Donor 2” value turned out to be 2.1%. For the same molecule, the “Average Relative IC50” value with soluble human TNFR2 [6] was 5.33 nM. In the assay with soluble human TNFR2 [16], the “Relative IC50” value came out at 5.79 nM. In the assay with human TNFR2 on cells [8], the “% CD4^+ ab^+ Donor 1” value was 44.4%, the “% CD4^+ ab^+ Donor 2” value is 35%, the “% CD8^+ ab^+ Donor 1” value stood at 23.8% and the “% CD8^+ ab^+ Donor 2” value came out at 17.7%. This molecule showed an equilibrium dissociation constant (Kd) in assay [9] of 470 nM. Further, the Kd in [10] came out at 0.25 nM.
